The test system of experiment [1] is NF-PB. As to the kind of experiment: Gel shift analysis with NF-PB consensus ODN, nuclear protein of FRTL-5 cells. Type of experiment: cell-based, rat. Conditions: nuclear extracts; dsDNA within 3 hours. The procedure: Nuclear Extracts—A previously employed method to prepare nuclear extracts (S. Ikuyama et al., Mol. Endocrinol. 6:1701-1715 (1992)) was modified to prepare extracts from small numbers of cells. Cells were washed, scraped in 1 ml PBS, pelleted in a microfuge, and resuspended in five volumes of Buffer A (10 mM HEPES-KOH, pH 7.9, 10 mM KCl, 1.5 mM MgCl2, 0.1 mM EDTA) containing 0.3 M sucrose and 2% Tween 40. To release nuclei, they were frozen and thawed once, then repetitively pipetted, 50 to 100 times, using a micropipet with a yellow tip (200 T1 capacity). Samples were overlayed on 1 ml of 1.5 M sucrose in Buffer A and microfuged for 10 min at 4EC. Pelleted nuclei were washed with 1 ml Buffer A, centrifuged for 30 sec, then resuspended in 50 T1 of Buffer B (20 mM HEPES-KOH, pH 7.9, 420 mM NaCl, 1.5 mM MgCl2, 0.2 mM EDTA, 25% glycerol). Samples were placed on ice for 20 min with occasional vortexing and centrifuged for 20 min at 4EC. The supernatant fraction containing nuclear protein was aliquoted and stored at −70 C. […]
Electrophoretic Mobility Shift Analysis (EMSA)—Oligonucleotides were labeled with [K-^32P]ATP using T4 polynucleotide kinase, then purified on 8% native polyacrylamide gels (S. Ikuyama et al., Mol. Endocrinol. 6:1701-1715 (1992); H. Shimura, et al., Mol. Endocrinol. 8:1049-69 (1994)). […] Mixtures were analyzed on 5% native polyacrylamide gels and autoradiographed. […]
(A gel shift assay detects complexes by their altered migration in electrophoresis.)

In experiment [2] the test system is FRTL-5 rat thyroid cells. Conditions: literature; cited from earlier work.

The source of these data is patent US20050036993A1, “Immune activation by double-stranded polynucleotides” (priority 1998, published 2005).

B1: KIFN: K-interferon (gamma interferon, character lost), rat recombinant, 100 U/ml (protein, UniProt P01581 23-156, looked up)
Interferon gamma: QGTLIESLESLKNYFNSSSMDAMEGKSLLLDIWRNWQKDGNTKILESQIISFYLRLFEVLKDNQAISNNISVIESHLITNFFSNSKAKKDAFMSIAKFEVNNPQIQHKAVNELIRVIHQLSPESSLRKRKRSRC
Take B1: the “binding of p50/p65 and p50 homodimer to consensus NF-PB oligonucleotide binding site” value in experiment [1] is “significantly lesser level”. Besides, the cell cycle progression entry in experiment [2] is “inhibits progression”.
